Measurements taken from US20230052312A1 (Genentech, published 2023).

Experiments:
[1] = target: T1, human PD-L1 (human, UniProt Q9NZQ7 19-290); assay: flow cytometry on human blood cells (conclusion of Example 1)
T1 construct: whole, on cells; Endogenous PD-L1 on cells of human donors and patients; also called programmed death ligand 1

[2] = target: T1, human PD-L1; assay: flow cytometry on stimulated human whole blood, with or without Atezolizumab
Experimental: A Live Dead Kit (Invitrogen) was brought to room temperature. The kit included a near-IR fluorescent reactive dye and DMSO. 1× Pharm Lyse was made by mixing 10 mL of 10× Pharm Lyse (BD Biosciences) in 90 mL distilled water. After surface staining the cells in the test tubes, the tubes were vortexed and 3 mL of 1× Pharm Lyse was added to each test tube. The test tubes were vortexed again to enhance lysis of the cells in the presence of Pharm Lyse. The test tubes were then incubated for 15 minutes at room temperature in the dark. Following incubation, the test tubes were centrifuged for 5 minutes at 300 RCF/1500 to 1600 RPM. After centrifugation, the supernatant was aspirated as much as possible without disturbing the cell pellet. The bottom of each test tube was then flicked to break the cell pellet before washing the cells in 3 mL phosphate-buffered saline (PBS). The test tubes were centrifuged once more for 5 minutes at 300 RCF/1500 to 1600 RPM. The supernatant was then aspirated as before without disturbing the cell pellet. The bottom of each test tube was flicked to break the cell pellet and 1 mL of PBS was added to each test tube. A test tube was selected to perform a cell count using the BioRad TC20 cell counter. If the cell count was above 2 million live cells per mL of PBS in the tube, the concentration was adjusted to be 1 million live cells per mL and diluted accordingly using PBS. […]

T1 sequence (Q9NZQ7 19-290): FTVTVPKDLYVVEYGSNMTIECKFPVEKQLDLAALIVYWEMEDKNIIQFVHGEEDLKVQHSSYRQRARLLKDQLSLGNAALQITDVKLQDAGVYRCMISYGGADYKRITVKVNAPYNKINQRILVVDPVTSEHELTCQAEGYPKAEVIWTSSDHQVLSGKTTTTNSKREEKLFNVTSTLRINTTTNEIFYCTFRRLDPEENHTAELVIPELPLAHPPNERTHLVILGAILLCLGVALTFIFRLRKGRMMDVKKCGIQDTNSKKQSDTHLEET

B1: anti-PD-L1 14D3 antibody (antibody, V domains shown)
VH: QVQLQQSGPELVNPGASVKISCKASGYAFSTSWMNWVKQRPGKGLEWIGRIYPRDGDTYYNGKFKDKATLTADKSSNTAYMQLSSLTSEDSAVYFCTKNPGGYYFDYWGQGTTLTVSS
VL: DIQMTQTTSSLSASLGDRVTINCRASQDIHTYLNWYQQKPDGTVKLLIFYTSRLHSGVPSRFSGSGSGTDYSLTISNLEQEDIATYFCQQVSSLPPWTFGGGTKVEIK
notes: also called clone 14D3; PD-L1 GNE
binding result [1]: binds

B2: anti-PD-L1 PE 14D3 (antibody, V domains shown)
VH: B1 VH
VL: B1 VL
notes: also called anti-PD-L1 14D3 antibody labeled with PE
binding result [2]: binds

B3: anti-PD-L1 AF647 14D3 (antibody, V domains shown)
VH: B1 VH
VL: B1 VL
notes: also called anti-PD-L1 14D3 antibody labeled with AF647
binding result [2]: binds
